Results on 3 molecules are retold here after patent publication US20250376519A1 (JIANGSU HENGRUI PHARMACEUTICALS, published 2025).

Assay [1] deals with T1, human DLL3 on cells (human, UniProt Q9NYJ7 27-618).
T1 sequence: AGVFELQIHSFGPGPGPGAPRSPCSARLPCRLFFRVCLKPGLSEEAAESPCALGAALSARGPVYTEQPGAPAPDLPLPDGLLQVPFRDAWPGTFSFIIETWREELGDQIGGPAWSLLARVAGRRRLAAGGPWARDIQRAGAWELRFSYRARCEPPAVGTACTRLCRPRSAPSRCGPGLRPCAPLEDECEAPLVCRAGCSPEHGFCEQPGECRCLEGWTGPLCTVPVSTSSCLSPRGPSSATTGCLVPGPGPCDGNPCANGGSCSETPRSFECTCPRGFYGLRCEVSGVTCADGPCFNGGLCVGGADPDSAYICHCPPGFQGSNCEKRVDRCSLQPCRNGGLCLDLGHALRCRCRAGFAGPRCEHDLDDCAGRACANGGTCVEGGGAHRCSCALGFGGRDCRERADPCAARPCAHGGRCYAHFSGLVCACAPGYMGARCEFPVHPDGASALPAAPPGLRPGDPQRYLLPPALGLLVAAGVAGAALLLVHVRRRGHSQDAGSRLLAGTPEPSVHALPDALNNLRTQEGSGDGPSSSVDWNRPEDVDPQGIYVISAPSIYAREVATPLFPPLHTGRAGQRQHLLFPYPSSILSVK
In words: cell-based or functional assay.

Assay [2] deals with T1, human DLL3 on cells. In words: cell-based or functional assay. The source holds these as a separate data set.
Assay [3] deals with T2, human CD3D&3E (ACRO, CDD-H52W1) (human, UniProt P04234 22-105; P07766 23-126).
T2 construct: bought CD3 delta/epsilon protein
T2 sequence (P04234 22-105, chain 1 of 2): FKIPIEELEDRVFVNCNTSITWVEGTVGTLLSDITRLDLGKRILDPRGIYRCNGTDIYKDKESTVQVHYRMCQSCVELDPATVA
T2 sequence (P07766 23-126, chain 2 of 2): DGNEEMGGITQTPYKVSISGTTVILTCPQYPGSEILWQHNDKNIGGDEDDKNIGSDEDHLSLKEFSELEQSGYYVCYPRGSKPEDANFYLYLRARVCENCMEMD
In words: SPR Biacore 8K, Ab captured on Protein A. An outline of the steps: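 Antibodies captured on a Protein A chip for 18 s; DLL3 or CD3D&3E antigen flowed 180 s, then 600 s dissociation, with real-time detection. Regeneration used 10 mM glycine-HCl pH 1.5 between cycles. Kinetics were obtained by 1:1 model fitting.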

Assay [4] deals with T1, human DLL3 on cells. The assay can be described thus: cell-based or functional assay. The source holds these as a separate data set.

B1: hu110-S107E-hot Ig (bispecific antibody)
light 1: NIVMTQSPKSLAVSLGERATINCKASENVGIFVSWYQQKPGQSPKLLIYGASNRYTGVPDRFSGSGSATDFTLTISSLQAEDVADYYCGQSHSYPLTFGQGTKLEIKGGGGSSGAPRFLTRPKASVVSVGKDATLSCQIVGNPFPQVSWEKDKQPVTAGVRFRLAQDGDLYRLKILDLQLSDSGQYVCRARNAHGEAFACLGLQVDAEA
heavy 1: EVQLVQSGAEVKKPGASVKVSCKTSGYTFTDYYMNWVRQAPGQSLEWMGIINPYQGGTSYTQKFKGRVTITVDKSASTAYMELSSLRSEDTAVYYCARHFYDSSYLTYSTMDYWGQGTTVTVSSGGGGSGIPPKIECLPIDISIDEGKVLTVASAFTGEPTPEVTWSTGGRKIHSQEQGRFHIENTDDSTTLTIKDVQKQDGGLYTLTLRNEFGSDSATVNIHIRSIDKTHTCPPCPAPEAAGGPSVFLFPPKPKDTLMISRTPEVTCVVVDVSHEDPEVKFNWYVDGVEVHNAKTKPREEQYNSTYRVVSVLTVLHQDWLNGKEYKCKVSNKALPAPIEKTISKAKGQPREPQVCTLPPSREEMTKNQVSLSCAVKGFYPSDIAVEWESNGQPENNYKTTPPVLDSDGSFFLVSKLTVDKSRWQQGNVFSCSVMHEALHNHYTQKSLSLSPGK
heavy 2: not shown
light 2: not shown
notes: Format 1 (Hot-Ig, Titin/Obscurin-replaced DLL3 Fab), DLL3 x CD3
For B1, in the assay with human DLL3 on cells [1], the “IC50, PBMC killing of H1184/lucG cells” value was 0.0295 nM and the “Imax (%), PBMC killing of H1184/lucG cells” value was found to be 92%. In addition, in the assay with human DLL3 on cells [2], the “EC50, Jurkat Lucia NFAT reporter with H82/DLL3 cells” value worked out at 0.0177 nM and the “Fold changes in activation, Jurkat Lucia NFAT reporter with H82/DLL3 cells” value was determined as 18 fold. Besides, in assay [3], binding was characterised by a dissociation constant (Kd) of 46.7 nM, the koff is 0.00749 s⁻¹ and the kon is 160000 M⁻¹ s⁻¹.

B2: hu110-I2C-hot Ig (bispecific antibody)
light 1: B1 light 1
heavy 1: B1 heavy 1
heavy 2: not shown
light 2: not shown
notes: as for B1
B2: in the assay with human DLL3 on cells [4], the “IC50, PBMC killing of SHP77/lucG cells” value turned out to be 0.0222 nM and the “Imax (%), PBMC killing of SHP77/lucG cells” value worked out at 96%.

B3: hu110-I2C-Y body (bispecific antibody)
light: NIVMTQSPKSLAVSLGERATINCKASENVGIFVSWYQQKPGQSPKLLIYGASNRYTGVPDRFSGSGSATDFTLTISSLQAEDVADYYCGQSHSYPLTFGQGTKLEIKRTVAAPSVFIFPPSDEQLKSGTASVVCLLNNFYPREAKVQWKVDNALQSGNSQESVTEQDSKDSTYSLSSTLTLSKADYEKHKVYACEVTHQGLSSPVTKSFNRGEC
heavy: EVQLVQSGAEVKKPGASVKVSCKTSGYTFTDYYMNWVRQAPGQSLEWMGIINPYQGGTSYTQKFKGRVTITVDKSASTAYMELSSLRSEDTAVYYCARHFYDSSYLTYSTMDYWGQGTTVTVSSASTKGPSVFPLAPSSKSTSGGTAALGCLVKDYFPEPVTVSWNSGALTSGVHTFPAVLQSSGLYSLSSVVTVPSSSLGTQTYICNVNHKPSNTKVDKKVEPKSCDKTHTCPPCPAPEAAGGPSVFLFPPKPKDTLMISRTPEVTCVVVDVSHEDPEVKFNWYVDGVEVHNAKTKPREEQYNSTYRVVSVLTVLHQDWLNGKEYKCKVSNKALPAPIEKTISKAKGQPREPQVCTLPPSREEMTKNQVSLSCAVKGFYPSDIAVEWESNGQPENNYKTTPPVLDSDGSFFLVSKLTVDKSRWQQGNVFSCSVMHEALHNHYTQKSLSLSPGK
chain: not shown
notes: Format 2 (Y body: DLL3 Fab-Fc hole + CD3 scFv-Fc knob)
Take B3: in the assay with human DLL3 on cells [4], the “IC50, PBMC killing of SHP77/lucG cells” value stood at 0.0338 nM and the “Imax (%), PBMC killing of SHP77/lucG cells” value turned out to be 100%. Moreover, in the assay with human DLL3 on cells [1], the “IC50, PBMC killing of H1184/lucG cells” value turned out to be 0.00642 nM and the “Imax (%), PBMC killing of H1184/lucG cells” value came to 98%. The “EC50, Jurkat Lucia NFAT reporter with H82/DLL3 cells” value in the assay with human DLL3 on cells [2] was 0.00636 nM.
